B1: TPR t1 (parent)
chain: GACCAAUCUGCCCUCAGAGCUCGAGAACAUCUUCGGAUGCAGAGGAGGCAGGCUUCGGUGGCGCGAUAGCGCCAACGUCCUCAACCUCCAAUGCAUCCCACCACAUGAUGAUGCCUGAAGAGCCUUGGUUUUUUG

The values below come from the RNAGym collection of RNA variant scans (doi:10.1073/pnas.2313332121).

In this data set the parent is B1. The experiment in a line: polymerase ribozyme fitness, log enrichment relative to wild type (log ratio); higher = more active; in vitro selection for triplet polymerase activity. An outline of the steps: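 Each subunit of a heterodimeric triplet polymerase ribozyme was represented by a PCR-built, transcribed mutant library that underwent triplicate single-round in vitro selection with frozen incubation at −7 °C. Extended constructs were recovered by gel excision, streptavidin-bead capture and RT-PCR, and Illumina sequencing of input and output libraries kept genotypes with ≥10 input reads and ≥1 read per output. Fitness is the logarithm of genotype enrichment relative to wild-type enrichment, from inverse-variance-weighted replicate averages, with a logarithm base of 2.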
In the case of GACCGAUCUGCCCUCAGAGCUCGAGAACAUCUUCGGAUGCAGAGGAGGCAGGCUUGGGUGGCGCGAUAGCGCCAACGUCCUCAACCUCCAAUGCAUCCCACCACAUGAUGAUGCCUGAAGAGCCUUGGUUUUUUG [A5G C56G], the “polymerase ribozyme fitness (log ratio)” value was -0.49.
For GACCGAUCUGCCCUCAGAGCUCGAGAACAUCUUCGGAUGCAGAGGAGGCAGGCUUCGGUGGCGCGAUAGCGCCAACGUCCUCAACCUCCAAUGCAUCCCACCACAUGAUGAUGCCUGAACAGCCUUGGUUUUUUG [A5G G120C], the “polymerase ribozyme fitness (log ratio)” value was 0.0754.
Next, GACCUUUCUGCCCUCAGAGCUCGAGAACAUCUUCGGAUGCAGAGGAGGCAGGCUUCGGUGGGGCGAUAGCGCCAACGUCCUCAACCUCCAAUGCAUCCCACCAUAUGAUGAUGCCUGAAGAGCCUUGGUUUUUUG [A5U A6U C62G C104U]: -1.25; GACCGAUCAGCCCUCAGAGCUCGAGAACAUCUUCGGAUGCAGAGGAGGCAGUCUUCGGUGGCGCGAUAGCGCCAACGUCCUCAACCUCCAAUGCAUCCCACCACAUGAUGAUGCCUGAAGAGCCUUGGUUUUUUG [A5G U9A G52U]: -1.25; GACCGAUCUGCCCUCAGAGCUCGAGAACAUCUUCGGAUGCAGAGGAGGCAGGCUUCGGUGGCGCGAUAGCGCCAACGUCCUCAACCUCGAAUGCAUCCCACCACAUGAUGAUGCCUGAAGAGCCUUGGUUUUUUG [A5G C89G]: -1.15.
With GACCGAUCUGCCCUCAGAGCUCGAGAACAUCCUCGGAUGUAGAGGAGGCAGGCUUCGGUGGCGCGAUAGCGCCAACGUCCUCAACCUCCAAUGCAUCCUUCCACAUGAUGAUGCCUGAAGAGCCUUGGUUUUUUG [A5G U32C C40U C99U A100U], the “polymerase ribozyme fitness (log ratio)” value is -5.33.
The same measure for GACCGAUCUGCCCUCAGAGCUCGAGAACAUCUUCGGAUGCAGAGGAGGCAGGCUUCGGUGGCGCGAUAGCGCCAACGUCCUCAACCUCCAAUGCAUCCCACCAUAUGAUGAUGCCUCAAGAGCCUUGGUGUUUUG [A5G C104U G117C U130G]: -3.77; for GACCGAUCUGCCCUCAGAGCUCGAGAACAUCUUCGGAUGCAGAGGAGGCAGGCUUCGGUGGCGCGAUAGCGCCAACGUCCUCAACCUCCAAUGCAUCCCACCACAUGAUGAUGCCUGAAGAGCAUUGGUUUUUUG [A5G C124A]: 1.03; for GACCGAUCUGCCCUCAGAGCUCGAGAACAUCUUCGGAUGCAGAGGAGGCAGGCUUCGGUGGCGUGAUAGCGCCAACGUCCUCAACCUCCAAUGCAUCCCACCACAUGAUGAUGCCUGAAGAGCCUUGGUUUUUUG [A5G C64U]: 0.17.
The same measure for GACCGAUCUGCCCUCAGAGCUCGAGAACAUCUUCGGAUGCAGAGGAGGCAUGCUUCGGUGGCGCGAUAGCGCCAACGUCCUCUACCUCCAAUGCAUCCCACCACAUGAUGAUGCCUGAAGCGCCUUGGUUUUUUG [A5G G51U A83U A121C]: -3.06; for GACCGAUCUACCCUAAGAGCUCCAGAACAUCGUCGGAUGCAGAGGAGGCAGGCUUCGGUGGCGAGAUAGCGCCAACGUCCUCAACCUCCAAUGCAUCCCACCACAUGAUGAUGCCUGAAGAGCCUUGCUCUUUUG [A5G G10A C15A G23C U32G C64A G128C U130C]: -6.17.
In the case of GACCGAUCUGCCCUCAGAGCUCGAGAACAUCUUCGGAUGCAGAGGAGGCAGGCUUCGGUGGUGCGAUAGCGCCAACGUCCUCAACCUGCAAUGCAUCCCACCACAUGAUGACGCCUGAAGAGAAUUGGUAUUUUG [A5G C62U C88G U112C C123A C124A U130A], the “polymerase ribozyme fitness (log ratio)” value came out at 0.112.
Next, GACCGAUCUGCCCUCAGAGCUCGAGAACAUCUUCGGAUGAAGAGGAGGCAGGCUUCGGUGGCGCGAUAGCGCCAACGUCCUCAACCUCCAAUGCAUCCCACCACAUGAUGAUGCCUGAAUAGCCUUGGUUUUUUG [A5G C40A G120U]: -0.337.
With GACCGAUCUGCCCUCAGAGCUCGAGAACAUCUUCGGAUGCAUAGGAGGCAGGCUUCGGUGGCGCGAUAGCGCCAACGUCCUCAACCUCCAAUGCAUCCCACCACAUGAUGAUGCUUGAAGAGCCUUGGUUUUUUG [A5G G42U C115U], the “polymerase ribozyme fitness (log ratio)” value was -1.79.
The same measure for GACCGAUCUGCCCUCAGAGCUCGAGAACAUCUUCGGAUGCAGAGGAGGCAGGCUUCGGUGGCGCGAUAGCGACAACGUCCUCAACCUCCAAUGCAUCCCACCACAUGAUGAUGCCUGAAGAGCCUUGGUUUUUUG [A5G C72A]: 0.0113.
The same measure for GACCGAUCUGCCCUCAGAGCUCGAGAACAUCUUCGGAUGUAGAGGAGGCAGGCUUCGGUGGCGCGAUAUCGCCAACGUCCUCAACCUCCAAUGCAUCCCGCCACAUGAUGAUGCCUGAAGAGCCUUGGUUUUUUG [A5G C40U G69U A100G]: -1.21; for GACCUAUCUGCCCUCAGCGCUCGAGAACAUCUUCGGAUGCAGAGGAGGCAGGCUUCGGUGGCGCGAUAGCGCCAACGUCCUCAACCUCCAAUGCAUCCCACCACAUGAUGAUGCCUGAAGAGCCUUGGUUUUUUG [A5U A18C]: -1.31.
The same measure for GACCGAUCUGCCCUCAGAGCUCGAGAACAUCUUCGGAUGCAGAGGAGGCAGGCUUAGGUGGCGCGAUAGCGCCGACGUCCUCAACCUCCAAUGCAUUCCACCACAUGAUGAUGCCUGAAGAGACUUGGUUUUUUG [A5G C56A A74G C97U C123A]: 0.643.
Take GACCGAUCUGCCCUCAGAGCUCGAGAACAUCUUCGGAUGCAGAGGAGGCAGGCUUCGGUGGCGUGAUAGCGCCAACGUCCUCAAUCUCCAAUGCAUCCCACCACAUGAUGAUGCCUGAAGAGCCUUGGUUUUUUG [A5G C64U C85U]: the “polymerase ribozyme fitness (log ratio)” value is -1.64.
Take GACCGAUCUGCCCUCAGAACUCGAGAACAUCUUCGGAUGCAGAGGAGGCAGGCUUCGGUGGCGCGAUAGCGUCAACGUCCUCAACCACCAAUGCAUCCCACCACAUGAUGAUGCCUUAAGAGCCUUGGUUUUUUG [A5G G19A C72U U87A G117U]: the “polymerase ribozyme fitness (log ratio)” value is -4.71.
Next, GACCGAUCUGCCCUCAGAGCUCGAGAACAUCUUCGGAUGCAGAGGAGGAAGGUUUCGGUGGCGCGAUAGCGCCAACGUCCUCAAACUCCAAUGCAUCCCACCACAUGAUGAUGCCUGAAGAGCCUUGGUUUUUUU [A5G C49A C53U C85A G135U]: -3.84.
